Test results from patent US9109007B2, “MHC-I restricted epitopes containing non-natural amino acid residues” (Purdue Pharma L.P., priority 2010, dated 2015).
Where no end group is shown, it is not given here. [ ]: non-standard residue; d: D form. Gly(cPent) = N[C@H](C(=O)O)C1CCCC1

Molecular target: T1, HLA-A2 (Homo sapiens, UniProt P04439, D140Y/D185E/D98H/E176V/E277Q/G131W/G231S/I119V/I121R/I166T/I218V/L300P/N151K/N90K/P208A/P217A/Q86G/Q94H/R138H/R169H)
T1 construct: Soluble Class I/Plate-Based Assays; purchased Beckman Coulter
Experiment: iTopia plate-based assay: stability (half-life) of peptide/HLA-A2 complexes
Assay type: binding
Conditions: for stability of complex with HLA-A2 compared with the corresponding native survivin peptide: Survivin peptide derivatives
Protocol: II. Soluble Class I/Plate-Based Assays The plate-based assay, named iTopia™, is a commercial assay (Beckman Coulter). The assay is performed in wells of microtiter plates. At the outset of the assay, MHCI complexes (properly folded MI-IC heavy chain, beta 2 microglobulin and a place-holder peptide), are tethered to streptavidin-coated microplate wells. (Proper formation/folding of the MHC complex may be determined by binding of an anti-HLA-ABC antibody). A buffer designed to unfold and dissociate the complex was added to each test well, allowed to incubate, and the place holder peptide and beta 2 microglobulin were washed away. Escalating concentrations of the test peptide, along with additional beta 2 microglobulin, were added to each well and incubated in a buffer designed to promote refolding of complexes. Plates were incubated overnight at 21° C. Properly folded MHCI complex molecules were detected with a fluorescently labeled antibody selected based on its ability to only bind properly folded MHCI complexes. Binding was reported relative to a standardized positive control peptide. Relative affinities were reported as ED50, and are defined herein as the concentration of peptide required to achieve half maximal binding of the positive control. […] Assessment of Peptide/HLA-A0201 Complex Stability. MHCI complexes were dissociated in each test well using stripping buffer, and the place-holder peptide and beta 2 microglobulin were washed away. 100 uM of the test peptide was added to appropriate wells along with additional beta 2 microglobulin and the anti-HLA ABC antibody, and the plates were incubated overnight at 21° C. Plates were washed, and fresh buffer was added to each well. Plates were shifted to 37° C., and the appropriate wells were read at 0, 0.5, 1, 1.5, 2, 4, 6 and 8 hours.

Substance | increase in the half life of the HLA-A2 peptide complex compared to the native survivin peptide (Survivin peptide derivative vs native survivin peptide) | stability of complex with HLA-A2 compared with the corresponding native survivin peptide
K-[cpg]-RRAIEQL (K[Gly(cPent)]RRAIEQL) | greater than 20 fold | more stable complex
I-[cpg]-TFKNWPF (I[Gly(cPent)]TFKNWPF) | – | more stable complex
